Test results taken from patent US20230079439A1, “Compositions and Methods for Enhancing Beta Cell Maturation, Health and Function” (THE REGENTS OF THE UNIVERSITY OF CALIFORNIA, priority 2016, published 2023).

Legend:
[1] = tested on: rat islets; experiment: Insulin secretion by rat islets with soluble neuroligin-2; assay type: cell-based; details: 20 mM glucose, read-out: half-maximal inhibition of insulin secretion
Procedure: Soluble neuroligin-2 extracellular domain was added to cultures of rat islets at the indicated concentrations. Insulin secretion was then measured (20 mM glucose). […] The soluble protein competes with endogenous, clustered neuroligin for binding to transcellular partners.

[2] = tested on: human islet cells; experiment: GSIS of dissociated human islet cells after clustered rNL2ED-Fc; assay type: cell-based; details: added 4 hours prior to GSIS
Procedure: FIG. 24 depicts insulin secretion by human islet cells after incubation with cross-linked, clustered rNL2ED-Fc. Indicated volume of solution containing cross-linked rNL2ED-Fc (90 μg/ml) or vehicle alone was added to equal numbers of dissociated human islet cells 4 hours prior to determination of GSIS. Stimulated insulin secretion is shown. […] (n=6 wells, representative of 3 separate experiments).
A recombinant protein with the extracellular domain of neuroligin-2 fused to an IgG Fc domain (rNL2ED-Fc) has been made. In contrast to the peptidomimetic agents, which are modeled on the neurexin binding site, this protein should be able to interact with all extracellular neuroligin-2 binding partners. Chemically cross-linked clusters incorporating this protein are made. Clustered complexes that sufficiently mimic endogenous clustered neuroligin-2 promote β-cell maturation and function to a greater degree than the peptidomimetic-based reagents. […] In contrast, rNL2ED monomers had no effect (not shown).

IC50 [1] [nM] | Molecule | stimulated insulin secretion by human β-cells [2]
9 | Soluble neuroligin-2 extracellular domain: soluble protein that competes with endogenous, clustered neuroligin for binding to transcellular partners (protein, UniProt Q8NFZ4 15-677, looked up, extracellular domain) extracellular domain: QRGGGGPGGGAPGGPGLGLGSLGEERFPVVNTAYGRVRGVRRELNNEILGPVVQFLGVPYATPPLGARRFQPPEAPASWPGVRNATTLPPACPQNLHGALPAIMLPVWFTDNLEAAATYVQNQSEDCLYLNLYVPTEDGPLTKKRDEATLNPPDTDIRDPGKKPVMLFLHGGSYMEGTGNMFDGSVLAAYGNVIVATLNYRLGVLGFLSTGDQAAKGNYGLLDQIQALRWLSENIAHFGGDPERITIFGSGAGASCVNLLILSHHSEGLFQKAIAQSGTAISSWSVNYQPLKYTRLLAAKVGCDREDSAEAVECLRRKPSRELVDQDVQPARYHIAFGPVVDGDVVPDDPEILMQQGEFLNYDMLIGVNQGEGLKFVEDSAESEDGVSASAFDFTVSNFVDNLYGYPEGKDVLRETIKFMYTDWADRDNGEMRRKTLLALFTDHQWVAPAVATAKLHADYQSPVYFYTFYHHCQAEGRPEWADAAHGDELPYVFGVPMVGATDLFPCNFSKNDVMLSAVVMTYWTNFAKTGDPNQPVPQDTKFIHTKPNRFEEVVWSKFNSKEKQYLHIGLKPRVRDNYRANKVAFWLELVPHLHNLHTELFTTTTRLPPYATRWPPRPPAGAPGTRRPPPPATLPPEPEPEPGPRAYDRFPGDSRDYSTELS | 
 | rNL2ED monomers: non-clustered recombinant neuroligin-2 extracellular domain (protein, UniProt Q62888 15-678, looked up, extracellular domain, non-clustered recombinant neuroligin-2 extracellular domain) extracellular domain: QRGGGGPGGGAPGGPGLGLGSLGEERFPVVNTAYGRVRGVRRELNNEILGPVVQFLGVPYATPPLGARRFQPPEAPASWPGVRNATTLPPACPQNLHGALPAIMLPVWFTDNLEAAATYVQNQSEDCLYLNLYVPTEDGPLTKKRDEATLNPPDTDIRDSGKKPVMLFLHGGSYMEGTGNMFDGSVLAAYGNVIVATLNYRLGVLGFLSTGDQAAKGNYGLLDQIQALRWLSENIAHFGGDPERITIFGSGAGASCVNLLILSHHSEGLFQKAIAQSGTAISSWSVNYQPLKYTRLLAAKVGCDREDSTEAVECLRRKSSRELVDQDVQPARYHIAFGPVVDGDVVPDDPEILMQQGEFLNYDMLIGVNQGEGLKFVEDSAESEDGVSASAFDFTVSNFVDNLYGYPEGKDVLRETIKFMYTDWADRDNGEMRRKTLLALFTDHQWVAPAVATAKLHADYQSPVYFYTFYHHCQAEGRPEWADAAHGDELPYVFGVPMVGATDLFPCNFSKNDVMLSAVVMTYWTNFAKTGDPNQPVPQDTKFIHTKPNRFEEVVWSKFNSKEKQYLHIGLKPRVRDNYRANKVAFWLELVPHLHNLHTELFTTTTRLPPYATRWPPRTPGPGTSGTRRPPPPATLPPESDIDLGPRAYDRFPGDSRDYSTELS | had no effect
